Laboratory results from patent US20250257128A1.

Legend:
human CD47 (human) [1] = target: human CD47 (human) (UniProt Q08722); experiment: flow cytometry on human red blood cells, antibody at 150 µg/mL (negative control)
human CD47 (human) [2] = target: human CD47 (human) (UniProt Q08722); experiment: flow cytometry on human red blood cells, antibody at 15 µg/mL (negative control)

Sequence of human CD47 (human) (Q08722 19-323): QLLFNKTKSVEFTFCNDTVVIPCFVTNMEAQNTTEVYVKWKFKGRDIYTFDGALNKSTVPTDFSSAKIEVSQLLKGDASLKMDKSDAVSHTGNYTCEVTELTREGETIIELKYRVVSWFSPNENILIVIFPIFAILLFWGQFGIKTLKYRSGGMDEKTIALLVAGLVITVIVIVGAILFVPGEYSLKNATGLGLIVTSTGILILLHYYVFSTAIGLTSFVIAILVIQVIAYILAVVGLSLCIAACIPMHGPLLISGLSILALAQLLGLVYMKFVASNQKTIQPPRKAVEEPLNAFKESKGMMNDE

MFI (human CD47 (human) [1]): 901 MFI
MFI (human CD47 (human) [2]): 303 MFI
Substance: Human IgG1 isotype negative control (antibody)
